The labels stand for the following.
T1: human neuromedin U receptor 1 (human, UniProt Q9HB89 24-426)
T1 sequence (looked up): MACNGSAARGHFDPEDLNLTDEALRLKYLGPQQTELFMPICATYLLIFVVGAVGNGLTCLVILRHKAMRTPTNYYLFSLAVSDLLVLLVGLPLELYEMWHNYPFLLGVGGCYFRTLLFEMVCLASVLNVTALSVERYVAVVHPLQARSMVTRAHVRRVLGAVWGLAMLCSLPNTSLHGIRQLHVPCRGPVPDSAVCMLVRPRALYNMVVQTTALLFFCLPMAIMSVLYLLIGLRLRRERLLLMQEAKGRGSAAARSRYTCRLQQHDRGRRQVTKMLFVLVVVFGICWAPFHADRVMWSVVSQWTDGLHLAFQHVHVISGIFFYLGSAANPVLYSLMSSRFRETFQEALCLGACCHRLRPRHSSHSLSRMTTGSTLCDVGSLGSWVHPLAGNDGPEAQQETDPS

B1: C18DA-gGlu3-Sar15-AEPipAc-Tyr-Phe-NMeLeu-Nle-Lys-NMeAla-Arg-Gly-NH2 (peptide)
peptide: EEEXXXXXXXXXXXXXXXXYFLXKARG
HELM: PEPTIDE1{[O=C(O)CCCCCCCCCCCCCCCCC(=O)[*:2]].[gGlu].[gGlu].[gGlu].[Sar].[Sar].[Sar].[Sar].[Sar].[Sar].[Sar].[Sar].[Sar].[Sar].[Sar].[Sar].[Sar].[Sar].[Sar].[O=C(CN1CCN(CCN[*:1])CC1)[*:2]].Y.F.[meL].[Nle].K.[meA].R.G.[am]}$$$$V2.0
SMILES: CCCC[C@H](NC(=O)[C@H](CC(C)C)N(C)C(=O)[C@H](Cc1ccccc1)NC(=O)[C@H](Cc1ccc(O)cc1)NC(=O)CN1CCN(CCNC(=O)CN(C)C(=O)CN(C)C(=O)CN(C)C(=O)CN(C)C(=O)CN(C)C(=O)CN(C)C(=O)CN(C)C(=O)CN(C)C(=O)CN(C)C(=O)CN(C)C(=O)CN(C)C(=O)CN(C)C(=O)CN(C)C(=O)CN(C)C(=O)CN(C)C(=O)CC[C@H](NC(=O)CC[C@H](NC(=O)CC[C@H](NC(=O)CCCCCCCCCCCCCCCCC(=O)O)C(=O)O)C(=O)O)C(=O)O)CC1)C(=O)N[C@@H](CCCCN)C(=O)N(C)[C@@H](C)C(=O)N[C@@H](CCCNC(=N)N)C(=O)NCC(N)=O
B2: C20DA-gGlu3-Sar15-AEPipAc-Tyr-Phe-NMeLeu-Nle-Lys-Pro-Arg-Gly-NH2 (peptide)
peptide: EEEXXXXXXXXXXXXXXXXYFLXKPRG
HELM: PEPTIDE1{[O=C(O)CCCCCCCCCCCCCCCCCCC(=O)[*:2]].[gGlu].[gGlu].[gGlu].[Sar].[Sar].[Sar].[Sar].[Sar].[Sar].[Sar].[Sar].[Sar].[Sar].[Sar].[Sar].[Sar].[Sar].[Sar].[O=C(CN1CCN(CCN[*:1])CC1)[*:2]].Y.F.[meL].[Nle].K.P.R.G.[am]}$$$$V2.0
SMILES: CCCC[C@H](NC(=O)[C@H](CC(C)C)N(C)C(=O)[C@H](Cc1ccccc1)NC(=O)[C@H](Cc1ccc(O)cc1)NC(=O)CN1CCN(CCNC(=O)CN(C)C(=O)CN(C)C(=O)CN(C)C(=O)CN(C)C(=O)CN(C)C(=O)CN(C)C(=O)CN(C)C(=O)CN(C)C(=O)CN(C)C(=O)CN(C)C(=O)CN(C)C(=O)CN(C)C(=O)CN(C)C(=O)CN(C)C(=O)CN(C)C(=O)CC[C@H](NC(=O)CC[C@H](NC(=O)CC[C@H](NC(=O)CCCCCCCCCCCCCCCCCCC(=O)O)C(=O)O)C(=O)O)C(=O)O)CC1)C(=O)N[C@@H](CCCCN)C(=O)N1CCC[C@H]1C(=O)N[C@@H](CCCNC(=N)N)C(=O)NCC(N)=O
B3: C20DA-gGlu3-Sar15-AEPipAc-Tyr-Phe-NMeLeu-Nle-Lys-NMeAla-Arg-Gly-NH2 (peptide)
peptide: EEEXXXXXXXXXXXXXXXXYFLXKARG
HELM: PEPTIDE1{[O=C(O)CCCCCCCCCCCCCCCCCCC(=O)[*:2]].[gGlu].[gGlu].[gGlu].[Sar].[Sar].[Sar].[Sar].[Sar].[Sar].[Sar].[Sar].[Sar].[Sar].[Sar].[Sar].[Sar].[Sar].[Sar].[O=C(CN1CCN(CCN[*:1])CC1)[*:2]].Y.F.[meL].[Nle].K.[meA].R.G.[am]}$$$$V2.0
SMILES: CCCC[C@H](NC(=O)[C@H](CC(C)C)N(C)C(=O)[C@H](Cc1ccccc1)NC(=O)[C@H](Cc1ccc(O)cc1)NC(=O)CN1CCN(CCNC(=O)CN(C)C(=O)CN(C)C(=O)CN(C)C(=O)CN(C)C(=O)CN(C)C(=O)CN(C)C(=O)CN(C)C(=O)CN(C)C(=O)CN(C)C(=O)CN(C)C(=O)CN(C)C(=O)CN(C)C(=O)CN(C)C(=O)CN(C)C(=O)CN(C)C(=O)CC[C@H](NC(=O)CC[C@H](NC(=O)CC[C@H](NC(=O)CCCCCCCCCCCCCCCCCCC(=O)O)C(=O)O)C(=O)O)C(=O)O)CC1)C(=O)N[C@@H](CCCCN)C(=O)N(C)[C@@H](C)C(=O)N[C@@H](CCCNC(=N)N)C(=O)NCC(N)=O
B4: C18DA-gGlu2-Sar9-AEPipAc-Tyr-Phe-NMeLeu-Nle-Orn-NMeAla-Arg-Gly-NH2 (peptide)
peptide: EEXXXXXXXXXXYFLXXARG
HELM: PEPTIDE1{[O=C(O)CCCCCCCCCCCCCCCCC(=O)[*:2]].[gGlu].[gGlu].[Sar].[Sar].[Sar].[Sar].[Sar].[Sar].[Sar].[Sar].[Sar].[O=C(CN1CCN(CCN[*:1])CC1)[*:2]].Y.F.[meL].[Nle].[Orn].[meA].R.G.[am]}$$$$V2.0
SMILES: CCCC[C@H](NC(=O)[C@H](CC(C)C)N(C)C(=O)[C@H](Cc1ccccc1)NC(=O)[C@H](Cc1ccc(O)cc1)NC(=O)CN1CCN(CCNC(=O)CN(C)C(=O)CN(C)C(=O)CN(C)C(=O)CN(C)C(=O)CN(C)C(=O)CN(C)C(=O)CN(C)C(=O)CN(C)C(=O)CN(C)C(=O)CC[C@H](NC(=O)CC[C@H](NC(=O)CCCCCCCCCCCCCCCCC(=O)O)C(=O)O)C(=O)O)CC1)C(=O)N[C@@H](CCCN)C(=O)N(C)[C@@H](C)C(=O)N[C@@H](CCCNC(=N)N)C(=O)NCC(N)=O
B5: C18DA-gGlu3-Sar15-AEPipAc-Tyr-Phe-NMeLeu-Nle-Lys-Pro-Arg-Gly-NH2 (peptide)
peptide: EEEXXXXXXXXXXXXXXXXYFLXKPRG
HELM: PEPTIDE1{[O=C(O)CCCCCCCCCCCCCCCCC(=O)[*:2]].[gGlu].[gGlu].[gGlu].[Sar].[Sar].[Sar].[Sar].[Sar].[Sar].[Sar].[Sar].[Sar].[Sar].[Sar].[Sar].[Sar].[Sar].[Sar].[O=C(CN1CCN(CCN[*:1])CC1)[*:2]].Y.F.[meL].[Nle].K.P.R.G.[am]}$$$$V2.0
SMILES: CCCC[C@H](NC(=O)[C@H](CC(C)C)N(C)C(=O)[C@H](Cc1ccccc1)NC(=O)[C@H](Cc1ccc(O)cc1)NC(=O)CN1CCN(CCNC(=O)CN(C)C(=O)CN(C)C(=O)CN(C)C(=O)CN(C)C(=O)CN(C)C(=O)CN(C)C(=O)CN(C)C(=O)CN(C)C(=O)CN(C)C(=O)CN(C)C(=O)CN(C)C(=O)CN(C)C(=O)CN(C)C(=O)CN(C)C(=O)CN(C)C(=O)CC[C@H](NC(=O)CC[C@H](NC(=O)CC[C@H](NC(=O)CCCCCCCCCCCCCCCCC(=O)O)C(=O)O)C(=O)O)C(=O)O)CC1)C(=O)N[C@@H](CCCCN)C(=O)N1CCC[C@H]1C(=O)N[C@@H](CCCNC(=N)N)C(=O)NCC(N)=O
B6: C18DA-gGlu3-Sar15-AEPipAc-Tyr-Phe-NMeLeu-Nle-2Pal-NMeAla-Arg-Gly-NH2 (peptide)
peptide: {C18 diacid}-[γGlu][γGlu][γGlu][Sar][Sar][Sar][Sar][Sar][Sar][Sar][Sar][Sar][Sar][Sar][Sar][Sar][Sar][Sar][Pipz(1-CH2CO,4-CH2CH2NH)]YF[NMeL][Nle][2Pal][NMeA]RG-NH2
SMILES: CCCC[C@H](NC(=O)[C@H](CC(C)C)N(C)C(=O)[C@H](Cc1ccccc1)NC(=O)[C@H](Cc1ccc(O)cc1)NC(=O)CN1CCN(CCNC(=O)CN(C)C(=O)CN(C)C(=O)CN(C)C(=O)CN(C)C(=O)CN(C)C(=O)CN(C)C(=O)CN(C)C(=O)CN(C)C(=O)CN(C)C(=O)CN(C)C(=O)CN(C)C(=O)CN(C)C(=O)CN(C)C(=O)CN(C)C(=O)CN(C)C(=O)CC[C@H](NC(=O)CC[C@H](NC(=O)CC[C@H](NC(=O)CCCCCCCCCCCCCCCCC(=O)O)C(=O)O)C(=O)O)C(=O)O)CC1)C(=O)N[C@@H](Cc1ccccn1)C(=O)N(C)[C@@H](C)C(=O)N[C@@H](CCCNC(=N)N)C(=O)NCC(N)=O
B7: C18DA-gGlu3-Sar15-AEPipAc-Tyr-Phe-NMeLeu-Nle-4Pal-Pro-Arg-Gly-NH2 (peptide)
peptide: {C18 diacid}-[γGlu][γGlu][γGlu][Sar][Sar][Sar][Sar][Sar][Sar][Sar][Sar][Sar][Sar][Sar][Sar][Sar][Sar][Sar][Pipz(1-CH2CO,4-CH2CH2NH)]YF[NMeL][Nle][4Pal]PRG-NH2
SMILES: CCCC[C@H](NC(=O)[C@H](CC(C)C)N(C)C(=O)[C@H](Cc1ccccc1)NC(=O)[C@H](Cc1ccc(O)cc1)NC(=O)CN1CCN(CCNC(=O)CN(C)C(=O)CN(C)C(=O)CN(C)C(=O)CN(C)C(=O)CN(C)C(=O)CN(C)C(=O)CN(C)C(=O)CN(C)C(=O)CN(C)C(=O)CN(C)C(=O)CN(C)C(=O)CN(C)C(=O)CN(C)C(=O)CN(C)C(=O)CN(C)C(=O)CC[C@H](NC(=O)CC[C@H](NC(=O)CC[C@H](NC(=O)CCCCCCCCCCCCCCCCC(=O)O)C(=O)O)C(=O)O)C(=O)O)CC1)C(=O)N[C@@H](Cc1ccncc1)C(=O)N1CCC[C@H]1C(=O)N[C@@H](CCCNC(=N)N)C(=O)NCC(N)=O
B8: C18DA-gGlu4-Sar12-AEPipAc-Tyr-Phe-NMeLeu-Nle-Orn-Pro-Arg-Gly-NH2 (peptide)
peptide: EEEEXXXXXXXXXXXXXYFLXXPRG
HELM: PEPTIDE1{[O=C(O)CCCCCCCCCCCCCCCCC(=O)[*:2]].[gGlu].[gGlu].[gGlu].[gGlu].[Sar].[Sar].[Sar].[Sar].[Sar].[Sar].[Sar].[Sar].[Sar].[Sar].[Sar].[Sar].[O=C(CN1CCN(CCN[*:1])CC1)[*:2]].Y.F.[meL].[Nle].[Orn].P.R.G.[am]}$$$$V2.0
SMILES: CCCC[C@H](NC(=O)[C@H](CC(C)C)N(C)C(=O)[C@H](Cc1ccccc1)NC(=O)[C@H](Cc1ccc(O)cc1)NC(=O)CN1CCN(CCNC(=O)CN(C)C(=O)CN(C)C(=O)CN(C)C(=O)CN(C)C(=O)CN(C)C(=O)CN(C)C(=O)CN(C)C(=O)CN(C)C(=O)CN(C)C(=O)CN(C)C(=O)CN(C)C(=O)CN(C)C(=O)CC[C@H](NC(=O)CC[C@H](NC(=O)CC[C@H](NC(=O)CC[C@H](NC(=O)CCCCCCCCCCCCCCCCC(=O)O)C(=O)O)C(=O)O)C(=O)O)C(=O)O)CC1)C(=O)N[C@@H](CCCN)C(=O)N1CCC[C@H]1C(=O)N[C@@H](CCCNC(=N)N)C(=O)NCC(N)=O

Starred links: 1 amine or outer side, 2 acyl side, 3 side chain; linkers in the order of their positions; H or OH if unused. Non-standard residues stand in square brackets, D forms with d. *: point of attachment. Pipz(1-CH2CO,4-CH2CH2NH) = O=C(CN1CCN(CCN[*:1])CC1)[*:2]; C18 diacid = O=C(O)CCCCCCCCCCCCCCCCC(=O)*; γGlu = O=C(O)[C@H](CCC(=O)[*:2])N[*:1]; 2Pal = N[C@@H](Cc1ccccn1)C(=O)O; 4Pal = N[C@@H](Cc1ccncc1)C(=O)O; NMeL = CN[C@@H](CC(C)C)C(=O)O; NMeA = CN[C@@H](C)C(=O)O; Nle = CCCC[C@H](N)C(=O)O; Sar = CNCC(=O)O A value given as a limit tells only on which side of the number the result lay.

This assay deals with T1, human neuromedin U receptor 1. Kind of assay: cell-based or functional assay.
For B1, the “EC50 (hNMUR1) buffer” value is > 1000 nM.
The value for B2 was 1300 nM; that for B3 was > 1000 nM.
Then B4, with > 1000 nM; and B5, with > 1000 nM; and B6, with > 1000 nM.
Turning to B7, the “EC50 (hNMUR1) buffer” value is > 1000 nM.
The value for B8 was 870 nM.

For the origin of these results see patent US20240279278A1, “NMU RECEPTOR 2 AGONISTS” (Boehringer Ingelheim International GmbH, priority 2023, published 2024).
